Patent publication US20220056111A1 (YUROGEN BIOSYSTEMS, published 2022)

T1: HcoV-229E S protein (HcoV-229E, UniProt P15423 16-1115)
T1 sequence: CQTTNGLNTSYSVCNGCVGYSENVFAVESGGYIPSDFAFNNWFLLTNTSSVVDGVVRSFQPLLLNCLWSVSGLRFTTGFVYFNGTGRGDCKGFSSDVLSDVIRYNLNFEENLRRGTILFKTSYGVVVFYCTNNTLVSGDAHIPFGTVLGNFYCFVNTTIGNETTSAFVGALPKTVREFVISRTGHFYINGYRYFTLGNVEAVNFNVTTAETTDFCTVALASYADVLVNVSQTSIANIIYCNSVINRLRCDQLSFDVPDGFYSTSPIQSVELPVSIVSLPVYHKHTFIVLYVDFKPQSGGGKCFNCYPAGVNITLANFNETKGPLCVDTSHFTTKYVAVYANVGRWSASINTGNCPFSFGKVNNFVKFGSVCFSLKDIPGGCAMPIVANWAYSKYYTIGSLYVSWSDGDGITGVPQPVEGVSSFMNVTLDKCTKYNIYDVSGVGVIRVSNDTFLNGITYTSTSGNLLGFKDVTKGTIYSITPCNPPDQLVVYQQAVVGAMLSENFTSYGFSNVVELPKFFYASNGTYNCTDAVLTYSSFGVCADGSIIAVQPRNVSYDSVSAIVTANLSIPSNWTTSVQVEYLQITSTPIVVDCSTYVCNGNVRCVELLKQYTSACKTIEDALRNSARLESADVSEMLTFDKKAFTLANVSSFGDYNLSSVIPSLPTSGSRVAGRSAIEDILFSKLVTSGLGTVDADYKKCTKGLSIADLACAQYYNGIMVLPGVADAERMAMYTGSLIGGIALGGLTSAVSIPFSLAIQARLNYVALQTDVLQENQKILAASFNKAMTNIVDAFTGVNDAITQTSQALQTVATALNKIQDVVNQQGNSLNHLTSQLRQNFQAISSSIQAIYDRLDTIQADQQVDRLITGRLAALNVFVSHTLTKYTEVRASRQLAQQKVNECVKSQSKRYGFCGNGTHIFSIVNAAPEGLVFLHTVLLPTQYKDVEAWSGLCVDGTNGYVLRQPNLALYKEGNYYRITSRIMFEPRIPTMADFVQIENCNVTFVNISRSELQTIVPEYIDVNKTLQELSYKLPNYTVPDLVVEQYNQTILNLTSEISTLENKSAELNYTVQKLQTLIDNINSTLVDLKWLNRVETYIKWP

T2: HcoV-OC43 S protein (HcoV-OC43, UniProt P36334 14-1297)
T2 sequence: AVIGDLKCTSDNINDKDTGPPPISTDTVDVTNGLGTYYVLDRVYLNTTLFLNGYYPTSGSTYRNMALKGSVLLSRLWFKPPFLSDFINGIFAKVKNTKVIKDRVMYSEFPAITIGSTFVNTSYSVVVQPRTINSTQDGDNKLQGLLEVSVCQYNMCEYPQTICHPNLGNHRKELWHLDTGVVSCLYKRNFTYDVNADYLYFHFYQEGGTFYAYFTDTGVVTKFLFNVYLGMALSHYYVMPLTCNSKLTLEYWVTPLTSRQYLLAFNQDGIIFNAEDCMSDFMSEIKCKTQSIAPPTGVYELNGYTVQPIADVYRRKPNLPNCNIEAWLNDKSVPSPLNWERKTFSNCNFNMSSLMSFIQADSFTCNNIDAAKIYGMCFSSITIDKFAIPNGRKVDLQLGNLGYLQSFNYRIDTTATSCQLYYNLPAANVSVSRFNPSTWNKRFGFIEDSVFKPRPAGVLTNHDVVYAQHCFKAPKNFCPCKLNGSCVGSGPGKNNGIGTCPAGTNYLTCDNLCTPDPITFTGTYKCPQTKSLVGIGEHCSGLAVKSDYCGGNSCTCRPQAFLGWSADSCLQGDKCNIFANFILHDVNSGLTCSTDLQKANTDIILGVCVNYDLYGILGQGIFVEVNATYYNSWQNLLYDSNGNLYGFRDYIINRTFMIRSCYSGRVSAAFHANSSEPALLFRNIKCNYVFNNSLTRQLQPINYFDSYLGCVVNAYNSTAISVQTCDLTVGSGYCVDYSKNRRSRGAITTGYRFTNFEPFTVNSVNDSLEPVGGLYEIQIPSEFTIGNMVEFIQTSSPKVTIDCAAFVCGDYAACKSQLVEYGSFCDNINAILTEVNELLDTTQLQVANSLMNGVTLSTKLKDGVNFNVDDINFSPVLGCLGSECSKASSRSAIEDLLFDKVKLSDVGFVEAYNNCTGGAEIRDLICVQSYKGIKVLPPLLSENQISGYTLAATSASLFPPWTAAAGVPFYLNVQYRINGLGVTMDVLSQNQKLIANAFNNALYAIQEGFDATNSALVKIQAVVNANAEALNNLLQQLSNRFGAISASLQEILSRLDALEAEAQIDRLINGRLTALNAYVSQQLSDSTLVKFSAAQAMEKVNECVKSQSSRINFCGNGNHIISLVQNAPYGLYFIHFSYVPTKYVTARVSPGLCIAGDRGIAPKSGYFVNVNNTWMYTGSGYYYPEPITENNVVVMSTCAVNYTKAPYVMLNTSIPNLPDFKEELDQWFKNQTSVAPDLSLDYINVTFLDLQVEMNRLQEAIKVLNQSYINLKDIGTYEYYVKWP


Tests used:
HcoV-229E S protein = target: T1, HcoV-229E S protein; assay: direct ELISA, OD450
SARS S1 and S2 protein = target: T3, SARS S1 and S2 protein (SARS, UniProt P59594 14-1195); assay: direct ELISA, OD450
T3 construct: domain: S1 and S2

HcoV-OC43 S protein = target: T2, HcoV-OC43 S protein; assay: direct ELISA, OD450
[1] = target: T4, SARS-CoV-2 Spike S1 protein (SARS-CoV-2, UniProt P0DTC2 16-685)
[2] = target: T4, SARS-CoV-2 Spike S1 protein; remark: listed apart in the source
[3] = target: T5, RBD (receptor binding domain) of the SARS-CoV-2 S1 (SARS-CoV-2, UniProt P0DTC2 319-541); assay: direct antigen ELISA, RBD coated, antibody titrated, anti-rabbit IgG-HRP
T5 construct: domain: RBD; also called RBD domain protein

| Binder | binding result (HcoV-229E S protein) | binding result (SARS S1 and S2 protein) | binding result (HcoV-OC43 S protein) | Kd [1] [nM] | koff [1] [s⁻¹] | kon [1] [M⁻¹ s⁻¹] | EC50 (read off the curve) [2] [µg/mL] | binding result [3] |
| --- | --- | --- | --- | --- | --- | --- | --- | --- |
| rabbit monoclonal antibody 7G5 against the SARS-CoV-2 S1 (antibody, V domains shown) VH: QEQLEESGGDLVKPGASLTLTCTASGFSFSSAYYMCWVRQAPGKGLEWIACIGVDSGGNSYYASWAKGRFTISTTSSTTVTLQMTSLTAADKATYFCTRSFSLWGPGTLVTISS VL: RKWLTQTASSVSAAVGGTVTISCQASQSVYNNDNLAWFQQRPGQPPKLLIYLASNLASGVPPRFSGSGSGTQFTLTISDVQCDDAATYYCLGGYDCSNADCHAFGGGTEVVVKG | no binding | no binding | no binding | 2.14 | 0.000261 | 122000 |  |  |
| rabbit monoclonal antibody 1H1 against the SARS-CoV-2 S1 (antibody, V domains shown) VH: QSLEESGGDLVKPGASLTLTCTASGFSFSSGYDMCWVRQAPGKGLEWIACIGTGSSGNIYYASWAKGRFTISKTSSTTVTLQMTSLTAADTATYFCARDDADYAGPDYFNLWGPGTLVTVSS VL: DIVMTQTPASVSEPVGGTVTIKCQASESISNWLAWYQQKPGQPPKLLIYAAFTLASGVPSRFKGSGSGTQFTLTINGVECADAATYYCQQTYSSRDVDNVFGGGTEVVVKG | no binding | no binding | no binding | 2.06 | 0.000273 | 133000 | ~0.04 |  |
| rabbit monoclonal antibody 9A5 against the SARS-CoV-2 S1 (antibody, V domains shown) VH: QSVEESGGRLVTPGTPLTLTCTVSGFSLSAYQMIWVRQTPGKGLEYIGIMHTGTSAYYANWAKGRFTISKTSSTTVDLKMTSPTTEDTATYFCGRNLNEGFTGAYPFNLWGPGTLVAVSS VL: DVVMTQTPASVEAAVGGTVTIKCQASQSIGSNLAWYQKKPGQPPKLLIYQASNLASGVPSRFKGSGSGTQFTLTISDLECADAATYYCQMNYYISSSYTYTFGGGTEVVVKG | no binding | no binding | no binding | 0.87 | 0.000115 | 132000 |  |  |
| rabbit monoclonal antibody 1D2 against the SARS-CoV-2 S1 (antibody, V domains shown) VH: QSVEESGGRLVTPGTSLTLTCTVSGIDIETYWMSWVRQAPGKGLEWIAIITSHDHSGYANWAEGRFTISKTSTTVTLTITDLQPSDTGTYFCAKDVGHSTYDLWGPGTLVTVSS VL: AAVLTQTPSPVSAAVGGTVTISCQSSESVLSNNRLSWYQQKPGQPPKLLIYAASTLASGVPSRFKGRGSGTQFTLTISDVQCDDAAMYVCAGAFSGSSDTRAFGGGTEVVVKG | no binding |  | no binding | 3.55 | 0.000259 | 72900 |  | no binding (tested: 1000 ng/ml) |
| rabbit monoclonal antibody 1A3 against the SARS-CoV-2 S1 (antibody, V domains shown) VH: QSLEESGGRLVTPGTPLTLTCTVSGFSFSSYHMGWVRQAPGEGLEWIGTLIGIAGNTYYASWAKGRFSISKTSTTVDLKMTSPTTEDTATYWCARIVTATFEFWGPGTLVTVSS VL: AQVLTQTPSPVSAAVGGTVTISCQASQSVNMNLLSWFQQKPGQPPKLLIYQASNLASGVSARFKGSGSGTQFTLTINEIQCDDAATYYCQGDMGGWMFPFGGGTEVVVTG | no binding | no binding | no binding | 0.537 | 9.34e-05 | 174000 |  | no binding (tested: 1000 ng/ml) |
